Here are results for two substances from paper PMC3750625.

Assay [1] has as its target Wild type IN 1–105, the isolated N-terminal domain (NTD) of Moloney murine leukemia virus integrase (Moloney murine leukemia virus) (UniProt P03355). Kind of assay: cross-linking; 56 μM IN 1–105 with 100 μM BS3 (0 to 300 μM tested), 50 mM Hepes pH 7.8, 25°C, 35 min, stopped with 50 mM lysine pH 8.0; SDS-PAGE; monomer and dimer bands digested with trypsin or chymotrypsin and read by LC-MS/MS or MALDI-TOF/TOF.

Assay [2] has the same target. In words: SEC; Superdex S-200, nondenaturing, 10 mM Tris pH 7.5, 0.5 M NaCl, 1 mM DTT, 5% glycerol; BS3-crosslinked and unmodified IN 1–105 compared. In general terms: Size exclusion chromatography separates by hydrodynamic size, large species first.
The target in assay [3] is K104C IN 1–105 (Moloney murine leukemia virus). In words: cross-linking; 50 μM IN 1–105 K104C with 1 mM BMOE (8 Å) or BM(PEG)2 (14.7 Å), 50 mM Tris–HCl pH 7.0, 10 μM ZnSO4, on ice 60 min, quenched with 10 mM DTT; SDS-PAGE.
For assay [4] the target is unchanged. In words: SEC; Superdex S-200 of the BMOE-crosslinked reaction mixture of K104C IN 1–105; data not shown.

As a reminder, the stoichiometry N is a count of units in the complex or per binding partner.

With “Wild type IN 1–105, the isolated N-terminal domain (NTD) of Moloney murine leukemia virus integrase (from UniProt P03355 2-106) (domain or fragment)”, in assay [1], the percent of the protein crosslinked turned out to be 50% and the stoichiometry N came out at 2. Moreover, in assay [2], the percent eluting at the position of the dimer worked out at 95% and the stoichiometry N is 2.
Turning to K104C IN 1–105 (domain or fragment), in assay [3], the crosslinking extent with BM(PEG)2 came out at 70%, the crosslinking extent with BMOE came out at 65% and the stoichiometry N is 2. Besides, in assay [4], the stoichiometry N is 2.
